Data from PMC6279836, “The LPG1x family from Leishmania major is constituted of rare eukaryotic galactofuranosyltransferases with unprecedented catalytic properties” (Scientific Reports, 2018).

Key:
Test in all cases: purified protein
Details in all cases: donor substrate; acceptor methyl alpha-D-mannopyranoside
[1] = test system: O=c1ccn([C@@H]2O[C@H](COP(=O)(O)OP(=O)(O)O[C@H]3O[C@H](CO)[C@H](O)[C@H](O)[C@H]3O)[C@@H](O)[C@H]2O)c(=O)[nH]1
[2] = test system: O=c1ccn([C@@H]2O[C@H](COP(=O)(O)OP(=O)(O)O[C@H]3O[C@@H]([C@H](O)CO)[C@H](O)[C@H]3O)[C@@H](O)[C@H]2O)c(=O)[nH]1
[3] = test system: O=c1ccn([C@@H]2O[C@H](CO[P@@](=O)(O)O[P@@](=O)(O)O[C@H]3O[C@H](CO)[C@@H](O)[C@H](O)[C@H]3O)[C@@H](O)[C@H]2O)c(=O)[nH]1
[4] = test system: Nc1nc2c(ncn2[C@@H]2O[C@H](COP(=O)(O)OP(=O)(O)O[C@H]3O[C@H](CO)[C@@H](O)[C@H](O)[C@@H]3O)[C@@H](O)[C@H]2O)c(=O)[nH]1
[5] = test system: Nc1nc2c(ncn2[C@@H]2O[C@H](COP(=O)(O)OP(=O)(O)O[C@H]3O[C@H](CO)[C@@H](O)[C@H](O)[C@H]3O)[C@@H](O)[C@H]2O)c(=O)[nH]1

Substance | Km [1] [µM] | kcat [1] [s⁻¹] | kcat/Km [1] [M⁻¹ s⁻¹] | Km [2] [µM] | kcat [2] [s⁻¹] | kcat/Km [2] [M⁻¹ s⁻¹] | Km [3] [µM] | kcat [3] [s⁻¹] | kcat/Km [3] [M⁻¹ s⁻¹] | Km [4] [µM] | kcat [4] [s⁻¹] | kcat/Km [4] [M⁻¹ s⁻¹] | Km [5] [µM] | kcat [5] [s⁻¹] | kcat/Km [5] [M⁻¹ s⁻¹]
LPG1G (Leishmania major) | 5 ± 1 | 2.2 ± 0.167 | 466000 | 30 ± 40 | 205.9 ± 0.967 | 6.56e+06 |  |  |  |  |  |  |  |  | 
LPG1R (Leishmania major) |  |  |  | 550 ± 680 | 10.6 ± 1.27 | 19100 | 38 ± 5 | 5.05 ± 0.55 | 133000 |  |  |  |  |  | 
LPG1 (Leishmania major) | 230 ± 20 | 5.33 ± 0.367 | 23300 | 70 ± 70 | 512.5 ± 1.03 | 6.83e+06 |  |  |  |  |  |  |  |  | 
LPG1L (Leishmania major) | 50 ± 10 | 7.8 ± 0.833 | 165000 | 20 ± 20 | 88.3 ± 1.05 | 4.85e+06 | 6 ± 1 | 3.42 ± 0.433 | 578000 | 32 ± 5 | 1.43 ± 0.1 | 47700 | 43 ± 5 | 0.4 ± 0.05 | 8330
